Source: patent US8455448B2, “Myostatin isoform” (Myostin Therapeutics Pty Ltd, priority 2004, dated 2013)

Legend:
[1] = system: myostatin mRNA expression; assay: Myostatin mRNA expression in C2C12 murine myoblasts (real-time PCR); format: cell-based; conditions: 10 μg/ml, FIG. 14
Description: C2C12 myoblasts were seeded in 10 cm diameter tissue culture plates (Nunc, Roskilde, Denmark) at a cell density of 3000 cells per cm^2 in 10 ml of Dulbecco's modified Eagle's medium (DMEM, Invitrogen, California) supplemented with foetal bovine serum (FBS, 10% v/v, Invitrogen), penicillin (1×10^5 IU/I, Sigma, St Louis, Mo., USA) and streptomycin (100 mg/l, Sigma) buffered with NaHCO3 containing phenol red (7.22 nmol/l) as a pH indicator, and incubated overnight at 37° C. with 5% CO2. For a set of eight plates (chronic treatment, designated “A”) the medium was replaced with the test medium: DMEM with 2.5% FBS supplemented with 0 or 10 μg/ml oMSV47 (n=4). The plates “A” were then incubated at 37° C. with 5% CO2 for 48 hours. […] RNA was re-suspended in diethyl pyrocarbonate-treated water and the total RNA concentration determined by measuring absorbance at 260 nm (Nanodrop Spectrophotometer, Delaware, USA). […] The following experimental run protocol was used: denaturation (95° C. for 5 min), amplification (95° C. for 5 sec, 62° C. for 10 sec, 72° C. for 20 sec, with a single fluorescence measurement, 50 cycles), melt curve (60-95° C. with a heating rate of 0.1° C. per sec with continuous fluorescence measurement) on a LightCycler 2.0 PCR machine (Roche Diagnostics). Arbitrary concentrations were calculated by the Lightcycler software using a standard curve (Roche Diagnostics).

[2] = system: developmental myosin heavy chain (dMHC); assay: Developmental myosin heavy chain (dMHC) protein in C2C12 myotubes (Western blot); format: cell-based, murine; conditions: FIG. 5
Description: To investigate whether roMSV65 regulates myoblast differentiation or myotube hypertrophy, C2C12 myoblast cultures were employed. Levels of well-established early and late molecular markers of myogenic differentiation like myogenin and dMHC were measured in the presence and absence of roMSV65 protein.
C2C12 myoblasts were seeded in 10 cm diameter tissue culture plates (Nunc, Roskilde, Denmark) at a cell density of 25,000 cells per cm^2 in 10 ml of Dulbecco's modified Eagle's medium (DMEM, Invitrogen, California) supplemented with foetal bovine serum (FBS, 10% v/v, Invitrogen), penicillin (1×10^5 IU/l, Sigma, St Louis, Mo., USA) and streptomycin (100 mg/I, Sigma) buffered with NaHCO3 containing phenol red (7.22 nmol/l) as a pH indicator, and incubated overnight at 37° C. with 5% CO2.
To study myoblast differentiation, the medium was replaced with the test medium: DMEM with 2% Horse Serum supplemented with 0, 0.1, 1 or 10 μg/ml roMSV65 in three replicates for each concentration (n=3). Plates were incubated at 37° C. with 5% CO2 for 72 hours.
Cells were removed from the plate by trypsin treatment, washed with phosphate buffered saline (PBS, Oxoid, UK) and resuspended in 200 μl of lysis buffer (10 mM Hepes pH 7.9, 1.5 mM MgCl2, 10 mM KCl, 0.5% NP40, one Complete protease inhibitor tablet [Roche Diagnostics, USA] per 50 ml buffer). The protein concentration was estimated using the bicinchoninic acid (BCA, Sigma, Missouri) protein assay. 20 μg of total protein was separated by SDS-PAGE (8% for MHC or 12% for myogenin) and transferred to nitrocellulose membrane by electroblotting. The blots were stained with Ponceau S stain to check equal loading. […] Band intensities were measured with a GS800 densitometer (Bio-Rad, CA).

## roMSV47: 47 amino acid C-terminal mature ovine MSV fragment (SEQ ID NO: 50), recombinant from E. coli (IIFLEVYIQFCSILGEAVFKRQSKSIHFCQNFKIIACLCNTAAFRMK; Ovis aries)
[1]; acutely, 6 h from 48 to 54 h
  expression of myostatin (real-time PCR): suppresses the expression of myostatin
[1]; chronically, from seeding to 48 h
  expression of myostatin (real-time PCR): suppresses the expression of myostatin

B1: roMSV65: 65 amino acid C-terminal peptide of ovine MSV (SEQ ID NO: 49) expressed as recombinant protein in E. coli (protein)
chain: VHFYTPPYGQWIFHKERKIIFLEVYIQFCSILGEAVFKRQSKSIHFCQNFKIIACLCNTAAFRMK
modifications: Ovis aries
[2]; 0.1 μg/ml roMSV65, 72 h
  increase in dMHC abundance compared to untreated controls: 18 fold
[2]; 1 μg/ml roMSV65, 72 h
  increase in dMHC abundance compared to untreated controls: 20 fold
[2]; 10 μg/ml roMSV65, 72 h
  increase in dMHC abundance compared to untreated controls: 2 fold
